{"source": "paper PMC6432756", "key": {"[1]": {"target": "D-allulose 3-epimerase from Staphylococcus aureus (Staphylococcus aureus)", "test": "SEC; purified SaDAE on Superdex 200 Increase 10/300 GL, 20 mM Tris-HCl pH 8.0, 100 mM NaCl, 1 mM DTT; markers conalbumin (75.0 kDa) and aldolase (158.0 kDa)"}, "[2]": {"target": "D-allulose 3-epimerase from Staphylococcus aureus (Staphylococcus aureus)", "test": "MALDI-TOF mass spectrometry; purified enzyme on HCCA matrix, acetonitrile-water 70:30 with 0.01% trifluoroacetic acid, linear mode"}}}
{"substance": "D-allulose 3-epimerase from Staphylococcus aureus (enzyme)", "values": [{"measurement": "stoichiometry N", "setting": "[1]", "value": 4}, {"measurement": "stoichiometry N", "setting": "[2]", "value": 4}]}
